Experimental data published in the DeepSol protein solubility set.

Assay: soluble on expression in E. coli; label from the status in PepcDB or PDB records

| Sequence | soluble on expression in E. coli |
| --- | --- |
| APSYPEYTREEVGRHRSPEERVWVTHGTDVFDVTDFVELHPGGPDKILLAAGGALEPFWALYAVHGEPHVLELLQQYKVGELSPDEAPAAPDAQDPFAGDPPRHPGLRVNSQKPFNAEPPAELLAERFLTPNELFFTRNHLPVPAVEPSSYRLRVDGPGGGTLSLSLAELRSRFPKHEVTATLQCAGNRRSEMSRVRPVKGLPWDIGAISTARWGGARLRDVLLHAGFPEELQGEWHVCFEGLDADPGGAPYGASIPYGRALSPAADVLLAYEMNGTELPRDHGFPVRVVVPGVVGARSVKWLRRVAVSPDESPSHWQQNDFKGFSPCVDWDTVDYRTAPAIQELPVQSAVTQPRPGAAVPPGELTVKGYAWSGGGREVVRVDVSLDGGRTWKVARLMGDKAPPGRAWAWALWELTVPVEAGTELEIVCKAVDSSYNVQPDSVAPIWNLRGVLSTAWHRVRVSVQD | soluble |
| APYRMAYIKKDPVDDARGSTNPFVRIPELSDEDGLIVARGEYVYCLLNLFPYNSGHMMVVPYRQEPNLEDLTAEEISELFAFGQAAIKVVKSVSRPDAINVGFNLGRASGGSVGEHLHMHIVPRWSGDANFMTVIDGTKVLPQLLRKTRSLLAQAWNDMDG | not soluble |
| AQAVKEAASSDKPLIVAVTACTTGIAHIYMAEESLIKTGEKMSVNVRVETNGASGVGTPMTAEEINKAVGVIIAADKAVETACFNGKN | not soluble |
| AQGQTVYFHAWGGSQEINHYLQWANKELQSKYQVTLKHVKVSDISETIPRLIAEKAADKNTNGSVDMVWINGENFKSMKDNQLLFGPFTENLPSWKYVDKMLPIDVDFSEPTDGLEAPWGVGQLVFIHDSENLTNPPHSFAEMLSYAQKKPNSLSYPRPPEFHGTSVLKSMLIELTNNNPALQKPVSESDFNAVTAPLWDYLEKFHKVAWRGGKQFPAGTSETIQLLDDGQLDLAVTFNPNAVYSAQANGNLANTTKAYAMDSGALSNIHFLAIPWNAKASAGAQVAINFLLSPEAQSRKGDLNVWGDPSVLSSKYLTGSAKNTQQFKSVSEPHPSWQAAIEKEWLKRFGS | not soluble |
| ASNFEEFVLVDNGGTGDVKVAPSNFANGVAEWISSNSRSQAYKVTCSVRQSSANNRKYTVKVEVPKVATQVQGGVELPVAAWRSYMNMELTIPVFATNDDCALIVKALQGTFKTGNPIATAIAANSGIY | soluble |
| ASSSYYEQYHSLNEIYSWIEVMTERYPDMVEKIHIGSSYEKYPLYVLKVSKKEQRAKNAMWIDCGIHAREWISPAFCLWFVGSVTYYYGKEKMHTNLLKHMDFYIMPVVNVDGYDYTWKKDRMWRKNRSLHEKNACVGTDLNRNFASKHWCGEGASSSSCSEIYCGTYPESEPEVKAVADFLRRNIKHIKAYISMHSYSQKIVFPYSYSRSRSKDHEELSLVAREAVFAMENIHRNIRYTHGSGSESLYLAPGGSDDWIYDLGIKYSFTFELRDKGKYGFLLPESYIRPTCSEALVAVAKIASHVVKNV | soluble |
| ASTSRLDALPRVTCPNHPDAILVEDYRAGDMICPECGLVVGDRVIDVGSEWRTFSNDK | soluble |
| AVNEENIMIPKGVEVYEITGPYFFGIATKFEETMAQLGDRPNVRIIRMRKVPFIDSTGIHNLTTLCEMSQKEKITVILSGVNEKVYKVLEKSGFYELLGKENICPNFKIALDRAEEV | not soluble |
| AVSKVYARSVYDSRGNPTVEVELTTEKGVFRSIVPSGASTGVHEALEMRDGDKSKWMGKGVLHAVKNVNDVIAPAFVKADIDVKDQKAVDDFLISLDGTANKSKLGANAILGVSLAASRAAAAEKDVPLYKHLADLSKSKTSPYVLPVPFLNVLNGGSHAGGALALQEFMIAPTGAKTFAEALRIGSEVYHNLKSLTKKRYGASAGNVGDEGGVAPNIQTAEEALDLIVDAIKAAGHDGKVKIGLDCASSEFFKDGKYDLDFKNPNSDKSKWLTGPQLADLYHSLMKRYPIVSIEDPFAEDDWEAWSHFFKTAGIQIVADDLTVTNPKRIATAIEKKAADALLLKVNQIGTLSESIKAAQDSFAAGWGVMVSHRSGETEDTFIADLVVGLRTGQIKTGAPARSERLAKLNQLLRIEEELGDNAVFAGENFHHGDKL | soluble |
| AVVETAAMFDGTEGTLGRSMTLEDMELMTWAIFQSGQKIPAKVYSKILAQWDLYSYQMAVFHEAYDILLTPTVADVTPKHGQFALSESLQNQLKQIAYFDWPKQQELIWAMFADSLDWTSFTQRANLTGQPSISLPIYRNADGLSLGVQLTSAKGREDLLLLLAKQMEE | not soluble |
| CGKSEAPPPAQTPEVGIVTLEAQTVTLNTELPGRTNAFRIAEVRPQVNGIILKRLFKEGSDVKAGQQLYQIDPATYEADYQSAQANLASTQEQAQRYKLLVADQAVSKQQYADANAAYLQSKAAVEQARINLRYTKVLSPISGRIGRSAVTEGALVTNGQANAMATVQQLDPIYVDVTQPSTALLRLRRELASGQLERAGDNAAKVSLKLEDGSQYPLEGRLEFSEVSVDEGTGSVTIRAVFPNPNNELLPGMFVHAQLQEGVKQKAILAPQQGVTRDLKGQATALVVNAQNKVELRVIKADRVIGDKWLVTEGLNAGDKIITEGLQFVQPGVEVKTVPAKNVASAQKADAAPAKTDSKG | soluble |
| CIAGHSRGGLIALIAAALKGKWAIAVSAPSDRRKQKEYLSKFPPGTVQYNIYQDLMKMPEYELEYSSLSYADRLKKVLLIHGEDDEMVLKEHSITLCDTIKRMGGDCELHIIPKMKHTPLGQQYQTIWSIIEDWIKRNS | not soluble |
| CTCSPSHPQDAFCNSDIVIRAKVVGKKLVKEGPFGTLVYTIKQMKMYRGFTKMPHVQYIHTEASESLCGLKLEVNKYQYLLTGRVYDGKMYTGLCNFVERWDQLTLSQRKGLNYRYHLGCN | soluble |
| DAAGVSEVEVEATEIENLKAELSEMEDKFLRARAEIANMSNRNKNERELLVRYRSQDLGKKILPSIDNLERAMAIEVSDEQGESLKKGISMVLESITVALKEEG | not soluble |
| DCMFGNGKGYRGKRVTTVTGTPCQDWAAQEPHRHSIFTPETNPRAGLEKNYCRNPDGDVGGPWCYTTNPRKLYDYCDVPQCAAP | soluble |
| DDEFLRGKRVLVVDDNFISRKVATGKLKKMGVSEVEQCDSGKEALRLVTEGLTQREEQGSVDKLPFDYIFMDCQMPEMDGYEATREIRKVEKSYGVRTPIIAVSGHDPGSEEARETIQAGMDAFLDKSLNQLANVIREIESKR | soluble |
| DEEPMHYGNIMYDRRVIRGNTYALQTGPLLGRPDSLELQRQREARKRALARKQAQEQLRPQTPEPVEGRKHVDVQTELYLEEIADRIIEVDMECQTDAFLDRPPTPLFIPAKTGKDVATQILEGELFDFDLEVKPVLEVLVGKTIEQSLLEVMEEEELANLRASQREYEELRNSERAEVQRLEEQERRHREEKERRKKQQWEIMHKHNETSQKIAARAFAQRYLADLLPSVFGSLRDSGYFYDPIERDIEIGFLPWLMNEVEKTMEYSMVGRTVLDMLIREVVEKRLCMYE | not soluble |
| DFEIMAPVGSRESLAAAIQAGADSIYFGIESLNMRARSASTFTVNDLREIAQICDKHGIKSYLTINTIIYDEDIALMRTIVDAAKEAGISAVIAADVAVMAYCCEVGQEVHLSTQLNISNAGALKFYARFADVVVLARELNLKQVRVIYDTIQKEQIKGPNGELVRIEMFCHGALCMAVSGKCYLSLHEMNASANRGACMQICRRAYDVKDKESDIELEVDNKYIMSPKDLKTIHFMDEMIEAGVRVFKIEGRARGPEYVRTVVECYKEAICSYLEGTFTEEKKQAWDERLKTVFNRGFWNGYYLGQRLGEWSKNYGSEATERKVYVGKGIKYFSNIGVAEFLVEAAEMKVGDKLLITGPTTGAVFLTLDEARVDLKPVDVVRKGQHVSFKVPDKVRPSDKLYKLVSPEDLK | not soluble |
| DIELTQSPPSLPVSLGDQVSISCRSSQSLVSNNRRNYLHWYLQKPGQSPKLVIYKVSNRFSGVPDRFSGSGSGTDFTLKISRVAAEDLGLYFCSQSSHVPLTFGSGTKLEIKR | soluble |
| DIGCYTLGALPPYEAINSCVDMGASITMAKGAADAGLFPAVSVIGDSTFTHSGITGLLDAINENSNITVIISDNESISMTGGQHSSAYGKVEAICRGIGVDPDHIRELLPVPKNHDELCSIIREEINYEGVSVIIPRRVCIQKHARDAKAAKRAKA | not soluble |
| DIINFFKQITDHEPYDYQIRAWEKINKIMELGGRVVIEIPTAGGKTEAAIIPYLYQFISNDWKVPRLIYVLPTRSLVEKQVERIRNYIKKILEIKGYSKDKVEELAKKIVQVEYGLEETHAFLGFVVLTTWDTFLYGLAAHRTVGDRFTFPCGAIAQSLVVFDEIQMYQDESLYMPRLIGLVVKRLVEANVPLVFMTATLPTELKKILGIHDEEPITVNPEDT | not soluble |
| DIPFYEQVKASAGHGFLCECKNVTYISLPKALFKYFNVKDLLAITAHGDSMEPVLNDDALLVIDSSKKQIRDGSMYVIRQGDLIRVKLISLDNNGLKLKSYNQSYHDEIYEDYQDVEILGKVIWYSSLCL | not soluble |
| DLAKEGKLHSIVDSLFYSRLYKKEKRVYGDTDYDRFDFFTNRFLQSFNKAAFDDFFSSRVEYPNQIKILFQMFFTKMEKLKTD | not soluble |
| DLFFGWGRKKSGLKAMNLAKKYKAKFILLEDGFIRSLNLGVENSPSFSMVKDDIGIYYDATMPSKLENLLNTCEFKDEEIKQAKKAIELIKKYKISKYNNNLDIPDNYFQKDEKRVLIITQTANDASLEFGLAKDFKTLDMIKDAIKENPKSTIYIKIHPDVLSGKKQSDLDLNSLPKECILITENFNPIALLEFFDKVYTKTSGMGFEALMQECECICYGMPFYAGWGLTKDKLECKRRMQKRSLEEVFYAAYILYAEY | not soluble |
| DLIVTAGGKNVSPGPMEDIIRAHPLVSQAMVVGDGKPFVGLLVTLDPDMLKRWKLNHNIAESRTVSEIATDPALRAEIQDAVNNANATVSHSEAIKRFYILDRDLTEEADELTPTLKVKRNVVVRRYADAIDHIYNR | not soluble |
| DPAGLLDLRQGMFAQLVAQNVLLIDGPLSWYSDPGLAGVSLTGGLSYKEDTKELVVAKAGVYYVFFQMELRRVVAGEGSGSVSLALHLMPLRSAAGAAALALTVDLPPASSEARNSAFGFQGRLLHLSAGQRLGVHLHTEARARHAWQLTQGATVLGLFRVTPEIPA | soluble |
| DPGERLYDLNMPAYVKFNYMAEREDELSLIKGTKVIVMEKCSDGWWRGSYNGQVGWFPSNYVTEEGDSPLGDHVG | soluble |
| DPSVTHVLHQLCDILANNYAFSERIPTLLQHLPNLDYSTVISEEDIAAKLNYELQSLTEDPRLVLKSKTDTLVMPGDSIQAENIPEDEAMLQALVNTVFKVSILPGNIGYLRFDQFADVSVIAKLAPFIVNTVWEPITITENLIIDLRYNVGGSSTAVPLLLSYFLDPETKIHLFTLHNRQQNSTDEVYSHPKVLGKPYGSKKGVYVLTSHQTATAAEEFAYLMQSLSRATIIGEITSGNLMHSKVFPFGDTQLSVTVPIINFIDSNGDYWLGGGVVPDAIVLADEALDKAKEIIAFHPPLA | soluble |
| DQESCKGRCTEGFNVDKKCQCDELCSYYQSCCTDYTAECKPQVTRGDVFTM | soluble |
